Starred links: 1 amine or outer side, 2 acyl side, 3 side chain; linkers in the order of their positions; H or OH if unused. Non-standard residues stand in square brackets, D forms with d. Residues, ends and D or L forms follow the SMILES beside them. No end group written: not given here. hSer(OMe) = COCC[C@H](N[*:1])C(=O)[*:2]; 1Nal = N[C@@H](Cc1cccc2ccccc12)C(=O)O; β3hI = CC[C@H](C)[C@H](N)CC(=O)O; β3hR = N=C(N)NCCC[C@H](N)CC(=O)O; β3hF = N[C@H](CC(=O)O)Cc1ccccc1; β3hK = NCCCC[C@H](N)CC(=O)O; Nle = CCCC[C@H](N)C(=O)O; Aib = CC(C)(N)C(=O)O; βAla = NCCC(=O)O
T1: human PTH-1 receptor (Homo sapiens, UniProt Q03431)
T1 construct: expressed in transfected cells; host or cells: HEK-293
T1 sequence (Q03431 27-593): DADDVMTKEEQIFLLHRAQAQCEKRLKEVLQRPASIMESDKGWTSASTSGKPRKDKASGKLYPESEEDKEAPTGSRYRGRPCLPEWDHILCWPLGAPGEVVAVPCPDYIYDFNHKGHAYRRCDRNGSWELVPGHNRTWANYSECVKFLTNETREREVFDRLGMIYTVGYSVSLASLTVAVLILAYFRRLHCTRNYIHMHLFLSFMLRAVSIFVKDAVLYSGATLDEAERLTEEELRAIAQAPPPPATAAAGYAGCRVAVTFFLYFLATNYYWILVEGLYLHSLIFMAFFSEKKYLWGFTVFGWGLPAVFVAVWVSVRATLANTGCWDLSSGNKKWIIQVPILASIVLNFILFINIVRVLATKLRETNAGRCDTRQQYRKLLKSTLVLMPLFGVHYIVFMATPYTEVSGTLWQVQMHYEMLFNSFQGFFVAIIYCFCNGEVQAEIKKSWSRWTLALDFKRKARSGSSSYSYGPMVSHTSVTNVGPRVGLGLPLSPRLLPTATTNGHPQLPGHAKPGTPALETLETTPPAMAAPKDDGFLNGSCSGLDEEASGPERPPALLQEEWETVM

B1: [Aib^1, Nle^8, hSer(OMe)^18, β-hLys^19, 1-Nal^23, Leu^27] hPTH (1-$$4)-NH2 (peptide)
peptide: [Aib]VSEIQL[Nle]HNLGKHLNS[hSer(OMe)][β3hK]RVE[1Nal]LRKLLQDVHNF-NH2
modifications: N-terminus assumed
SMILES: CCCC[C@H](NC(=O)[C@H](CC(C)C)NC(=O)[C@H](CCC(N)=O)NC(=O)[C@@H](NC(=O)[C@H](CCC(=O)O)NC(=O)[C@H](CO)NC(=O)[C@@H](NC(=O)C(C)(C)N)C(C)C)[C@@H](C)CC)C(=O)N[C@@H](Cc1c[nH]cn1)C(=O)N[C@@H](CC(N)=O)C(=O)N[C@@H](CC(C)C)C(=O)NCC(=O)N[C@@H](CCCCN)C(=O)N[C@@H](Cc1c[nH]cn1)C(=O)N[C@@H](CC(C)C)C(=O)N[C@@H](CC(N)=O)C(=O)N[C@@H](CO)C(=O)N[C@@H](CCOC)C(=O)N[C@@H](CCCCN)CC(=O)N[C@@H](CCCNC(=N)N)C(=O)N[C@H](C(=O)N[C@@H](CCC(=O)O)C(=O)N[C@@H](Cc1cccc2ccccc12)C(=O)N[C@@H](CC(C)C)C(=O)N[C@@H](CCCNC(=N)N)C(=O)N[C@@H](CCCCN)C(=O)N[C@@H](CC(C)C)C(=O)N[C@@H](CC(C)C)C(=O)N[C@@H](CCC(N)=O)C(=O)N[C@@H](CC(=O)O)C(=O)N[C@H](C(=O)N[C@@H](Cc1c[nH]cn1)C(=O)N[C@@H](CC(N)=O)C(=O)N[C@@H](Cc1ccccc1)C(N)=O)C(C)C)C(C)C

Columns and labels:
human PTH-1 receptor = molecular target: T1, human PTH-1 receptor; assay: Reporter gene assay (CRE-luciferase) for agonist activity in transiently transfected HEK-293 cells; type: cell-based; details: for hPTHR-2/hPTHR-1: Table 3, selectivity for hPTH-1 receptor over hPTH-2 receptor; for hPTHR-2/hPTHR-1 / Selectivity hPTHR-2/hPTHR-1: ratio of EC50 values; for Selectivity hPTHR-2/hPTHR-1: Table 4 comparison data
Outline: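 Selectivity came from luciferase transcriptional reporter assays expressing human PTH-2 receptor. PTH-1 agonism used transiently transfected HEK-293 cells carrying SV40-promoter receptor and cAMP-responsive-element luciferase; 4-5 h compound exposure, lysis, luminescence, non-linear-regression EC50/efficacy; ≥3 independent runs, PTH (1-34) control each.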

human PTH-2 receptor = molecular target: T2, human PTH-2 receptor (Homo sapiens, UniProt P49190); assay: Luciferase-based transcriptional reporter gene assay for selectivity; type: cell-based
T2 construct: expressed in transfected cells
T2 sequence (P49190 25-550): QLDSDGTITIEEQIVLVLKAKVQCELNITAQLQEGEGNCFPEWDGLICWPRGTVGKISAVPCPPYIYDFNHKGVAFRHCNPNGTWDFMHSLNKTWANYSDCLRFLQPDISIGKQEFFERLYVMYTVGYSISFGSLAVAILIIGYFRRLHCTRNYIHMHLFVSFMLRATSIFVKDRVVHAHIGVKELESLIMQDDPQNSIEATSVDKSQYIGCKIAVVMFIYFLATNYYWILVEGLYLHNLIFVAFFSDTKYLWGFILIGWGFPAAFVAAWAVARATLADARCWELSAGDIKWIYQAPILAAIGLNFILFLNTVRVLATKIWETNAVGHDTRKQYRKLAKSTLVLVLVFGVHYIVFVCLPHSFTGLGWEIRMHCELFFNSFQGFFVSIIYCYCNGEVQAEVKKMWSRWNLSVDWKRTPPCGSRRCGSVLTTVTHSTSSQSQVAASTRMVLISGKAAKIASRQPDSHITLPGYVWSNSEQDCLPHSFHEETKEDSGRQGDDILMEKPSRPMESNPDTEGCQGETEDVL
Procedure: Agonist activity of compounds on the human PTH-1 receptor was determined in a reporter gene assay by transiently transfecting HEK-293 cells with plasmids encoding human PTH-1 receptor under control of the SV40 promoter and a luciferase reporter gene under control of cAMP responsive elements (CRE). See Himmler et al, J. Recept. Res. 13 (1993) 79-94, for further guidance on this assay. Transfected cells were exposed to serial dilutions of compounds for 4-5 hours followed by lysis of cells, determination of luciferase activity, and determination of compound efficacies and EC50 values through non-linear regression.
PTH (1-34) was used as an internal control in each experiment and compounds were tested in at least three independent experiments. To determine selectivity, compounds were tested in luciferase-based transcriptional reporter gene assays expressing the human PTH-2 receptor.

[1] = molecular target: human parathyroid hormone receptor 2 (human, UniProt P49190); assay: cell-based or functional assay
[2] = molecular target: human parathyroid hormone receptor 1 (human, UniProt Q03431); assay: cell-based or functional assay

Molecule | EC50 (human PTH-1 receptor) [nM] | hPTHR-2/hPTHR-1 (human PTH-1 receptor) | potency at the hPTH-1 receptor compared to PTH (1-34) (human PTH-1 receptor; in words) | EC50 (human PTH-2 receptor) [nM] | Selectivity hPTHR-2/hPTHR-1 (human PTH-1 receptor) | hPTHR-2 EC50 (nM), luciferase reporter gene assay [1] [nM] | hPTHR-1 EC50 (nM), CRE-luciferase reporter gene assay [2] [nM]
CCCC[C@H](NC(=O)[C@H](CC(C)C)NC(=O)[C@H](CCC(N)=O)NC(=O)[C@@H](NC(=O)[C@H](CCC(=O)O)NC(=O)[C@H](CO)NC(=O)[C@@H](NC(=O)[C@@H](N)CO)C(C)C)[C@@H](C)CC)C(=O)N[C@@H](Cc1c[nH]cn1)C(=O)N[C@@H](CC(N)=O)C(=O)N[C@@H](CC(C)C)C(=O)NCC(=O)N[C@@H](CCCCN)C(=O)N[C@@H](Cc1c[nH]cn1)C(=O)N[C@@H](CC(C)C)C(=O)N[C@@H](CC(N)=O)C(=O)N[C@@H](CO)C(=O)N[C@H](CC(=O)N[C@@H](CCC(=O)O)C(=O)N[C@@H](CCCNC(=N)N)C(=O)N[C@H](C(=O)N[C@@H](CCC(=O)O)C(=O)N[C@@H](Cc1cccc2ccccc12)C(=O)N[C@@H](CC(C)C)C(=O)N[C@@H](CCCNC(=N)N)C(=O)N[C@@H](CCCCN)C(=O)N[C@@H](CC(C)C)C(=O)N[C@@H](CC(C)C)C(=O)N[C@@H](CCC(N)=O)C(=O)N[C@@H](CC(=O)O)C(=O)N[C@H](C(N)=O)C(C)C)C(C)C)[C@@H](C)CC [SEQ ID NO: 1, [Nle^8, β-hIle^18,1-Nal^23, Leu^27] hPTH-(1-31)-NH2] (H-SVSEIQL[Nle]HNLGKHLNS[β3hI]ERVE[1Nal]LRKLLQDV-NH2; N-terminus assumed) | 0.09 | 339 | Improved potency | 32 |  |  | 
CCCC[C@H](NC(=O)CCNC(=O)[C@H](CC(N)=O)NC(=O)[C@H](CC(C)C)NC(=O)[C@H](Cc1c[nH]cn1)NC(=O)[C@H](CCCCN)NC(=O)CNC(=O)[C@H](CC(C)C)NC(=O)[C@H](CC(N)=O)NC(=O)[C@H](Cc1c[nH]cn1)NC(=O)[C@H](CCCC)NC(=O)[C@H](CC(C)C)NC(=O)[C@H](CCC(N)=O)NC(=O)[C@@H](NC(=O)[C@H](CCC(=O)O)NC(=O)[C@H](CO)NC(=O)[C@@H](NC(=O)C(C)(C)N)C(C)C)[C@@H](C)CC)C(=O)N[C@@H](CCC(=O)O)C(=O)N[C@@H](CCCNC(=N)N)C(=O)N[C@H](C(=O)N[C@@H](CCC(=O)O)C(=O)N[C@@H](Cc1cccc2ccccc12)C(=O)N[C@@H](CC(C)C)C(=O)N[C@@H](CCCNC(=N)N)C(=O)N[C@@H](CCCCN)C(=O)N[C@@H](CC(C)C)C(=O)N[C@@H](CC(C)C)C(=O)N[C@@H](CCC(N)=O)C(=O)N[C@@H](CC(=O)O)C(=O)N[C@H](C(=O)N[C@@H](Cc1c[nH]cn1)C(=O)N[C@@H](CC(N)=O)C(=O)N[C@@H](Cc1ccccc1)C(N)=O)C(C)C)C(C)C [SEQ ID NO: 2, [Aib^1, Nle^8,18, β-Ala^17,1-Nal^23, Leu^27] hPTH (1-34)-NH2] (H-[Aib]VSEIQL[Nle]HNLGKHLN[βAla][Nle]ERVE[1Nal]LRKLLQDVHNF-NH2) | 0.06 | 566 |  | 31 | 566 |  | 
CCCC[C@H](NC(=O)[C@H](CC(C)C)NC(=O)[C@H](CCC(N)=O)NC(=O)[C@@H](NC(=O)[C@H](CCC(=O)O)NC(=O)[C@H](CO)NC(=O)[C@@H](NC(=O)C(C)(C)N)C(C)C)[C@@H](C)CC)C(=O)N[C@@H](Cc1c[nH]cn1)C(=O)N[C@@H](CC(N)=O)C(=O)N[C@@H](CC(C)C)C(=O)NCC(=O)N[C@@H](CCCCN)C(=O)N[C@@H](Cc1c[nH]cn1)C(=O)N[C@@H](CC(C)C)C(=O)N[C@@H](CC(N)=O)C(=O)N[C@@H](CO)C(=O)N[C@H](CC(=O)N[C@@H](CCC(=O)O)C(=O)N[C@@H](CCCNC(=N)N)C(=O)N[C@H](C(=O)N[C@@H](CCC(=O)O)C(=O)N[C@@H](Cc1cccc2ccccc12)C(=O)N[C@@H](CC(C)C)C(=O)N[C@@H](CCCNC(=N)N)C(=O)N[C@@H](CCCCN)C(=O)N[C@@H](CC(C)C)C(=O)N[C@@H](CC(C)C)C(=O)N[C@@H](CCC(N)=O)C(=O)N[C@@H](CC(=O)O)C(=O)N[C@H](C(N)=O)C(C)C)C(C)C)[C@@H](C)CC [SEQ ID NO: 5, [Aib^1, Nle^8, β-hIle^18,1-Nal^23, Leu^27] hPTH (1-31)-NH2] (H-[Aib]VSEIQL[Nle]HNLGKHLNS[β3hI]ERVE[1Nal]LRKLLQDV-NH2) | 0.05 | 387 |  | 18 | 387 |  | 
[Aib]VSEIQL[Nle]HNLGKHLNS[β3hR]ERVE[1Nal]LRKLLQDVHNF-NH2 [[Aib^1, Nle^8, β-hArg^18, 1-Nal^23, Leu^27] hPTH (1-34)-NH2] |  |  |  |  |  | 16 | 0.05
SVSEIQL[Nle]HSLGKHLKS[β3hI]ERVE[1Nal]LRKLLQRV-NH2 [[Nle^8, Ser^10, Lys^16, β-hIle^18, 1-Nal^23, Leu^27, Arg^30] hPTH (1-31)-NH2] |  |  |  |  |  | 7 | 0.08
[Aib]VSEIQL[Nle]HSLGKHLKS[β3hI]ERVE[1Nal]LRKLLQRV-NH2 [[Aib^1, Nle^8, Ser^10, Lys^16, β-hIle^18, 1-Nal^23, Leu^27, Arg^30] hPTH (1-31)-NH2] |  |  |  |  |  | 6 | 0.09
[Aib]VSEIQL[Nle]HNLGKHLNS[β3hF]ERVE[1Nal]LRKLLQDVHNF-NH2 [[Aib^1, Nle^8, β-hPhe^18, 1-Nal^23, Leu^27 hPTH (1-34)-NH2] |  |  |  |  |  | 5 | 0.06
SVSEIQL[Nle]HNLGKHLKS[β3hI]ERVE[1Nal]LRKLLQRVHEF-NH2 [[Nle^8, Lys^16, β-hIle^18, 1-Nal^23, Leu^27, Arg^30, Glu^33] hPTH (1-34)-NH2] |  |  |  |  |  | 14 | 0.09
B1 |  |  |  |  |  | 3 | 0.05
SVSEIQL[Nle]HSLGKHLKS[β3hI]ERVE[1Nal]LRKLLQRVHEF-NH2 [[Nle^8, Ser^10, Lys^16, β-hIle^18, 1-Nal^23, Leu^27, Arg^30, Glu^33] hPTH(1-34)-NH2] |  |  |  |  |  | 8 | 0.12
[Aib]VSEIQL[Nle]HNLGKHLN[β3hF][hSer(OMe)]ERVE[1Nal]LRKLLQDVHNF-NH2 [[Aib^1, Nle^8, β-hPhe^17, hSer(OMe)^18, 1-Nal^23, Leu^27] hPTH-(1-34)-NH2] |  |  |  |  |  | 117 | 0.1
SVSEIQL[Nle]HNLGKHLNS[β3hF]ERVE[1Nal]LRKLLQDVHNF-NH2 [[Nle^8, β-hPhe^18, 1-Nal^23, Leu^27] hPTH (1-34)-NH2] |  |  |  |  |  | 10 | 0.11
SVSEIQL[Nle]HSLGKHLKS[β3hI]ERVE[1Nal]LRKLLQRVHEE-NH2 [[Nle^8, Ser^10, Lys^16, β-hIle^18, 1-Nal^23, Leu^27, Arg^30, Glu^33, Glu^34] hPTH (1-34)-NH2] |  |  |  |  |  | 6 | 0.04

Source: patent US20110195900A1, “PEPTIDIC PTH RECEPTOR AGONISTS” (FERRING B.V., priority 2008, published 2011)
